Reference: PMC2408619 (2008)

B2: Pertactin on the surface of Bvg+ B. bronchiseptica RB53 (receptor)
chain: DWNNQSIIKAGERQHGIHIKQSDGAGVRTATGTTIKVSGRQAQGVLLENPAAELRFQNGSVTSSGQLFDEGVRRFLGTVTVKAGKLVADHATLANVSDTRDDDGIALYVAGEQAQASIADSTLQGAGGVRVERGANVTVQRSTIVDGGLHIGTLQPLQPEDLPPSRVVLGDTSVTAVPASGAPAAVSVFGANELTVDGGHITGGRAAGVAAMDGAIVHLQRATIRRGDAPAGGAVPGGAVPGGAVPGGFGPLLDGWYGVDVSDSTVDLAQSIVEAPQLGAAIRAGRGARVTVSGGSLSAPHGNVIETGGGARRFPPPASPLSITLQAGARAQGRALLYRVLPEPVKLTLAGGAQGQGDIVATELPPIPGASSGPLDVALASQARWTGATRAVDSLSIDNATWVMTDNSNVGALRLASDGSVDFQQPAEAGRFKVLMVDTLAGSGLFRMNVFADLGLSDKLVVMRDASGQHRLWVRNSGSEPASANTMLLVQTPRGSAATFTLANKDGKVDIGTYRYRLAANGNGQWSLVGAKAPPAPKPAPQPGPQPGPQPPQPPQPPQRQPEAPAPQPPAGRELSAAANAAVNTGGVGLASTLWYAESNALSKRLGELRLNPDAGGAWGRGFAQRQQLDNRAGRRFDQKVAGFELGADHAVAVAGGRWHLGGLAGYTRGDRGFTGDGGGHTDSVHVGGYATYIANSGFYLDATLRASRLENDFKVAGSDGYAVKGKYRTHGVGASLEAGRRFAHADGWFLEPQAELAVFRVGGGAYRAANGLRVRDEGGSSVLGRLGLEVGKRIELAGGRQVQPYIKASVLQEFDGAGTVRTNGIAHRTELRGTRAELGLGMAAALGRGHSLYASYEYSKGPKLAMPWTFHAGYRYSW

Tests used:
[1] = target: B2
[2] = target: T1, Biotinylated Prn-E (pertactin residues 38-640 with N-terminal biotinylation sequence) (B. bronchiseptica, UniProt Q03035 38-640, biotin (in vivo biotinylation of the N-terminal biotinylation sequence)); assay: SPR
T1 chain: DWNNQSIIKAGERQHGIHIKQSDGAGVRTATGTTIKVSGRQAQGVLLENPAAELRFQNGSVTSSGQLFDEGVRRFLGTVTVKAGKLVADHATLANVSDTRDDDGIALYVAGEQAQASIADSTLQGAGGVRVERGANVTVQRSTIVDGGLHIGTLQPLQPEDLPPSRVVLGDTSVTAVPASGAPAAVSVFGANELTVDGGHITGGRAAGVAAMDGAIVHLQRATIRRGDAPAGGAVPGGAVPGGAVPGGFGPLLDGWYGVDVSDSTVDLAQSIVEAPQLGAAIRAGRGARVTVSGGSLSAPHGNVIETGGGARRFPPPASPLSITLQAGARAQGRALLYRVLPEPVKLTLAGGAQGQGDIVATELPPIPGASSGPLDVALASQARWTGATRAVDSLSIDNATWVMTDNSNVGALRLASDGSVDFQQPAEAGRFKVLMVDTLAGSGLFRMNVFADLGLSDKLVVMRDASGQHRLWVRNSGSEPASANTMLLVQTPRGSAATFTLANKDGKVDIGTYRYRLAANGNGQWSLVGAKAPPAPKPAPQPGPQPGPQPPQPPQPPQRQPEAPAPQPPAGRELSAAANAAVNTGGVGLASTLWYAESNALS

[3] = target: BPP-6 phage displaying Mtd-P6 (Bordetella bacteriophage BPP-6, UniProt Q775D6)

B1: BPP-1 phage displaying Mtd-P1 (other)
chain: MSTAVQFRGGTTAQHATFTGAAREITVDTDKNTVVVHDGATAGGFPLARHDLVKTAFIKADKSAVAFTRTGNATASIKAGTIVEVNGKLVQFTADTAITMPALTAGTDYAIYVCDDGTVRADSNFSAPTGYTSTTARKVGGFHYAPGSNAAAQAGGNTTAQINEYSLWDIKFRPAALDPRGMTLVAGAFWADIYLLGVNHLTDGTSKYNVTIADGSASPKKSTKFGGDGSAAYSDGAWYNFAEVMTHHGKRLPNYNEFQALAFGTTEATSSGGTDVPTTGVNGTGATSAWNIFTSKWGVVQASGCLWTWGNEFGGVNGASEYTANTGGRGSVYAQPAAALFGGAWNGTSLSGSRAALWYSGPSFSFAFFGARGVCDHLILE
[1]
  Kd: 3.7 pM
[2]
  koff: 0.000636 s⁻¹

## B2
[3]
  Kd: 0.059 pM
